Measurements published in patent publication US8901076 (Molecular Partners, dated 2014).

Molecular target: VEGF-A165 (UniProt P15692 27-191)
Assay: cell-based or functional assay

Chain of VEGF-A165 (P15692 other isoform, or with tags, fused parts or gaps): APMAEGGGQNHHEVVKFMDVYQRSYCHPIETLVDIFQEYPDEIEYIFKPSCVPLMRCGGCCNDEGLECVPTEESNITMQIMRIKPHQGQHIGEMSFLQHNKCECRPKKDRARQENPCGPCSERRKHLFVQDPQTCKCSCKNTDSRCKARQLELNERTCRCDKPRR

B1: DARPin #30 (designed binder)
chain: GSDLGKKLLEAARAGQDDEVRILMANGADVNTADSTGWTPLHLAVPWGHLEIVEVLLKYGADVNAKDFQGWTPLHLAAAIGHQEIVEVLLKNGADVNAQDKFGKTAFDISIDNGNEDLAEILQKAA
In the case of B1, the “IC50 (read off the curve); sprout length of VEGF-A165 stimulated HUVEC spheroids” value is reported as ~0.03 nM.
